In PMC3790826:

How the values were obtained:
[1] = target: rice RAD51A1 (japonica cultivar Nipponbare), His6 tag removed (Oryza sativa (japonica cultivar Nipponbare)); assay: SEC; Superdex 200 GL 10/300; 70 µg protein incubated 30 min at room temperature without nucleotide (the printed oligomer sizes), with 1 mM ATP (apparent sizes drastically increased) or with 1 mM ADP (no such change); elution in 20 mM HEPES-NaOH pH 7.5, 400 mM NaCl, 0.1 mM EDTA, 2 mM 2-mercaptoethanol, 1 mM MgCl2; apparent molecular sizes
[2] = target: rice RAD51A2 (japonica cultivar Nipponbare), His6 tag removed (Oryza sativa (japonica cultivar Nipponbare)); assay: as above

stoichiometry N [1] | stoichiometry N [2] | Substance
8 -mer |  | rice RAD51A1 (japonica cultivar Nipponbare), His6 tag removed (natural protein)
 | 5 -mer | rice RAD51A2 (japonica cultivar Nipponbare), His6 tag removed (natural protein)
